According to article PMC6029366:

Target: M1R-TEV-tTA fusion protein

Substance “β-arrestin-TEV protease (from UniProt P32121 1-409) (natural protein)” has a TANGO β-arrestin recruitment assay, luciferase reporter (RLU), HTLA cells treated with the muscarinic agonist carbachol of 7.4 fold.
